The source of these data is patent US20240293576A1.

The target of assay [1] is HIV virus pNL4-3 (HIV-1). Briefly: cell-based or functional assay.
In assay [2] the target is HIV virus pAD-8 (HIV-1). Briefly: cell-based or functional assay.

In assay [1], “anti-HIV broad-spectrum neutralizing antibody PGT128” returned a pNL4-3 RLU (TZMbl luciferase, neutralisation by supernatant) of 474000 RLU. Also, in assay [2], the AD-8 RLU (TZMbl luciferase, neutralisation by supernatant) came to 147000 RLU.

In assay [1], “anti-HIV broad-spectrum neutralizing antibody 10E8V4-5R+100cF” yielded a pNL4-3 RLU (TZMbl luciferase, neutralisation by supernatant) of 121000 RLU. In assay [2], this substance displayed an AD-8 RLU (TZMbl luciferase, neutralisation by supernatant) of 976000 RLU.
